{"source": "paper PMC12062221", "key": {"[1]": {"molecular_target": "fluorescently labeled human H2a(G129C)-H2b dimer (human) (UniProt P04908)", "assay": "MST"}, "[2]": {"molecular_target": "human histone (H3-H4)2 tetramer (human) (UniProt P68431)", "assay": "MST"}}}
{"substance": "αSyn(121-140) peptide (from UniProt P37840 121-140)", "values": [{"measurement": "KD of one of two binding sites", "setting": "[1]", "result": 0.5, "unit": "µM"}, {"measurement": "KD of the other of two binding sites", "setting": "[1]", "result": 2.6, "unit": "µM"}]}
{"substance": "αSyn(1-103) (from UniProt P37840 1-103) (domain or fragment)", "values": [{"measurement": "Kd", "setting": "[2]", "result": 0.107, "unit": "µM"}]}
{"substance": "αSyn(1-131) (from UniProt P37840 1-131) (domain or fragment)", "values": [{"measurement": "Kd", "setting": "[1]", "result": 32.4, "unit": "µM"}]}
